# From patent US20170258835A1
# Target: PD1-Z CLEAR
# Experiment: flow cytometry, T cells 18 h after co-electroporation of PD1-Z RNA and bi-specific antibody RNA, stained with anti-mouse IgG Fab PE and anti-PD1 APC; same quadrant in the controls: EP16 PD1-Z alone 2.42, EP20 No RNA 0.086
# Chain of PD1-Z CLEAR (chain, as listed by the source limits assumed): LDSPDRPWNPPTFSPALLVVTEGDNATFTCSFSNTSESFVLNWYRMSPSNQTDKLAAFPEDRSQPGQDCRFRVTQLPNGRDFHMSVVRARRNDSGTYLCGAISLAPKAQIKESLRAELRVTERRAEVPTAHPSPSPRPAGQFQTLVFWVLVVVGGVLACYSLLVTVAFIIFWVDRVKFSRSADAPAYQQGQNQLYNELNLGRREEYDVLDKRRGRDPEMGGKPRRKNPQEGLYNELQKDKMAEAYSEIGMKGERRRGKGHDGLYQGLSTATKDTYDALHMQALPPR
row,percent of cells PD1+ mIgG Fab+ (upper right quadrant),Binder
1,57.1,"4A11-4D5-4 (bispecific antibody, part only; not given: anti-ErbB2 scFv 4D5-4 and linker, not shown: another chain or arm of the molecule; small tags and cut ends) scFv: DIQMTQSPSSLSASVGDRVSITCRASQGISSWLAWYQQKPEKAPKSLIYAASNLRSGVPSRFSGSGSGTDFTLTISSLQPEDFATYYCQQYYSYPRTFGQGTKVEIKGGGGSGGGGSGGGGSQLQLQESGPGLVKPSETLSLTCTVSGGSLSRSSFFWGWIRQPPGKGLEWIGSIYYSGSTYYNPSLKSRVTISVDTSKNQFSLKLSSVTAADTAVYYCVRDYDILTGDEDYWGQGTLVTVSS"
2,35.6,"4A11-4D5-3 (bispecific antibody, part only; not given: anti-ErbB2 scFv 4D5-3 and linker, not shown: another chain or arm of the molecule; small tags and cut ends) scFv: DIQMTQSPSSLSASVGDRVSITCRASQGISSWLAWYQQKPEKAPKSLIYAASNLRSGVPSRFSGSGSGTDFTLTISSLQPEDFATYYCQQYYSYPRTFGQGTKVEIKGGGGSGGGGSGGGGSQLQLQESGPGLVKPSETLSLTCTVSGGSLSRSSFFWGWIRQPPGKGLEWIGSIYYSGSTYYNPSLKSRVTISVDTSKNQFSLKLSSVTAADTAVYYCVRDYDILTGDEDYWGQGTLVTVSS"
